The record followed here is patent US20250020634A1.

This assay concerns the target NaV1.5-V5 (cardiac voltage-gated sodium channel alpha subunit, SCN5A). Nature of the assay: cell-based or functional assay.

“rat β1-V5-6×HIS (sodium channel beta-1 subunit, SCN1B) (from UniProt Q00954 19-218)”: the GV ΔV1/2 (mV), whole-cell patch clamp, BeHAPe cells, NaV1.5 + β1 came out at 6.7 mV; the GV ΔV1/2 (mV), whole-cell patch clamp, eHAP cells, NaV1.5 + β1 came out at 0.2 mV; the SSI ΔV1/2 (mV), whole-cell patch clamp, BeHAPe cells, NaV1.5 + β1 was found to be 8.8 mV; the SSI ΔV1/2 (mV), whole-cell patch clamp, eHAP cells, NaV1.5 + β1 was 3.2 mV. The shift of GV V1/2 (fit to mean values, FIG. 5A), BeHAPe cells worked out at 7.5 mV; the shift of SSI V1/2 (fit to mean values, FIG. 5A), BeHAPe cells was 7.5 mV; the Δτ inactivation at V1/2 (ms), whole-cell patch clamp, BeHAPe cells, NaV1.5 + β1 was -1.7 ms; the Δτ inactivation at V1/2 (ms), whole-cell patch clamp, eHAP cells, NaV1.5 + β1 was -0.3 ms.
Take “rat β2-HA (sodium channel beta-2 subunit, SCN2B) (from UniProt P54900 30-215)”: the GV ΔV1/2 (mV), whole-cell patch clamp, BeHAPe cells, NaV1.5 + β2 was -2.5 mV; the SSI ΔV1/2 (mV), whole-cell patch clamp, BeHAPe cells, NaV1.5 + β2 is -9.9 mV; the shift of SSI V1/2 (fit to mean values, FIG. 5B), BeHAPe cells is -5.9 mV; the Δτ inactivation at V1/2 (ms), whole-cell patch clamp, BeHAPe cells, NaV1.5 + β2 was -0.5 ms.
With “β1 & β2 (rat β1-V5-6×HIS and rat β2-HA simultaneously co-expressed) (from UniProt Q00954 19-157; P54900 30-157)”, the GV ΔV1/2 (mV), whole-cell patch clamp, BeHAPe cells, NaV1.5 + β1 & β2 amounted to 7.9 mV; the SSI ΔV1/2 (mV), whole-cell patch clamp, BeHAPe cells, NaV1.5 + β1 & β2 came to 9.1 mV; the shift of GV V1/2 (fit to mean values, FIG. 5E), BeHAPe cells came to 9.3 mV; the shift of SSI V1/2 (fit to mean values, FIG. 5E), BeHAPe cells is 13.4 mV. The Δτ inactivation at V1/2 (ms), whole-cell patch clamp, BeHAPe cells, NaV1.5 + β1 & β2 turned out to be 0 ms.

B1: human β3 (sodium channel beta-3 subunit, SCN3B) (protein, UniProt Q9NY72 23-215, looked up)
chain: FPVCVEVPSETEAVQGNPMKLRCISCMKREEVEATTVVEWFYRPEGGKDFLIYEYRNGHQEVESPFQGRLQWNGSKDLQDVSITVLNVTLNDSGLYTCNVSREFEFEAHRPFVKTTRLIPLRVTEEAGEDFTSVVSEIMMYILLVFLTLWLLIEMIYCYRKVSKAEEAAQENASDYLAIPSENKENSAVPVEE
In the case of B1, the GV ΔV1/2 (mV), whole-cell patch clamp, BeHAPe cells, NaV1.5 + β3 is 8.8 mV; the SSI ΔV1/2 (mV), whole-cell patch clamp, BeHAPe cells, NaV1.5 + β3 turned out to be 9.1 mV; the shift of GV V1/2 (fit to mean values, FIG. 5C), BeHAPe cells came out at 7.4 mV; the shift of SSI V1/2 (fit to mean values, FIG. 5C), BeHAPe cells was 9.4 mV. Besides, the Δτ inactivation at V1/2 (ms), whole-cell patch clamp, BeHAPe cells, NaV1.5 + β3 was 0.4 ms.

B2: human β4 (sodium channel beta-4 subunit, SCN4B) (protein, UniProt Q8IWT1 31-228, looked up)
chain: LEVSVGKATDIYAVNGTEILLPCTFSSCFGFEDLHFRWTYNSSDAFKILIEGTVKNEKSDPKVTLKDDDRITLVGSTKEKMNNISIVLRDLEFSDTGKYTCHVKNPKENNLQHHATIFLQVVDRLEEVDNTVTLIILAVVGGVIGLLILILLIKKLIIFILKKTREKKKECLVSSSGNDNTENGLPGSKAEEKPPSKV
On to B2, for which the GV ΔV1/2 (mV), whole-cell patch clamp, BeHAPe cells, NaV1.5 + β4 was 5.2 mV; the SSI ΔV1/2 (mV), whole-cell patch clamp, BeHAPe cells, NaV1.5 + β4 was found to be 2.4 mV; the shift of GV V1/2 (fit to mean values, FIG. 5D), BeHAPe cells is 6.1 mV; the Δτ inactivation at V1/2 (ms), whole-cell patch clamp, BeHAPe cells, NaV1.5 + β4 is 0.5 ms.

B3: Myelin protein zero (MPZ) (protein, UniProt P25189 1-248, looked up, species assumed)
chain: MAPGAPSSSPSPILAVLLFSSLVLSPAQAIVVYTDREVHGAVGSRVTLHCSFWSSEWVSDDISFTWRYQPEGGRDAISIFHYAKGQPYIDEVGTFKERIQWVGDPRWKDGSIVIHNLDYSDNGTFTCDVKNPPDIVGKTSQVTLYVFEKVPTRYGVVLGAVIGGVLGVVLLLLLLFYVVRYCWLRRQAALQRRLSAMEKGKLHKPGKDASKRGRQTPVLYAMLDHSRSTKAVSEKKAKGLGESRKDKK
modifications: full-length
With B3, the GV ΔV1/2 (mV), whole-cell patch clamp, BeHAPe cells, NaV1.5 + MPZ is 8.7 mV; the SSI ΔV1/2 (mV), whole-cell patch clamp, BeHAPe cells, NaV1.5 + MPZ worked out at 6.3 mV; the shift of GV V1/2 (fit to mean values, FIG. 5F), BeHAPe cells amounted to 7.4 mV; the shift of SSI V1/2 (fit to mean values, FIG. 5F), BeHAPe cells worked out at 6.9 mV. The Δτ inactivation at V1/2 (ms), whole-cell patch clamp, BeHAPe cells, NaV1.5 + MPZ is 0.2 ms.
